# Results: publication PMC9352680, “A comprehensive thermodynamic model for RNA binding by the Saccharomyces cerevisiae Pumilio protein PUF4”
# Substitutions are numbered along the chain they refer to. Names may count otherwise.
# T1: PUF4 RNA-binding domain (Saccharomyces cerevisiae, UniProt P25339 537-888)
# T1 sequence: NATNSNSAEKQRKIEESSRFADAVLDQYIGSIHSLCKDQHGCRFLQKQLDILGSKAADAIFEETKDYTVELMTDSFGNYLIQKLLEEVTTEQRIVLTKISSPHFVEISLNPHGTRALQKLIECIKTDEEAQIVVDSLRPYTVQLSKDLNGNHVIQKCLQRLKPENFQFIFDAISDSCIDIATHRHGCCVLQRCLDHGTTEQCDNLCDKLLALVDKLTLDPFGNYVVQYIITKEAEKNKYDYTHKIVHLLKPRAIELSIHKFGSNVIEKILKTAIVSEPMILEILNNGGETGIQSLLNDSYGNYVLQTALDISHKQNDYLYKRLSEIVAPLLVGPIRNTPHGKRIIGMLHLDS
# B1: Ic_S2_P4E.1_K4.1_C4.1_H4.1_A4.1_[T5G]_[A6C]_F4.1_[A9G]_T4.1 (ssRNA)
# RNA: UUUGAUUAAUAUGAUAUCGUUCUUUCUUGUAGCUUGUUCUUUCUCGAUAUCAUAUUAAUCUUU
# B2: Ic_S2_P4E.1_K4.1_C4.1_H4.1_A4.1_[T5G]_[A6T]_F4.1_[T8C]_[A9G]_T4.1 (ssRNA)
# RNA: B1 RNA with C33U, U35C
# B3: Ic_S2_P4E.1_K4.1_C4.1_H4.1_A4.1_[T5C]_[A6G]_[T7C]_F4.1_[T8G]_[A9T]_T4.1 (ssRNA)
# RNA: B1 RNA with G32C, C33G, U34C, U35G, G36U
# B4: Ic_S2_P4E.1_K4.1_C4.1_H4.1_A4.1_[T5G]_[A6T]_F4.1_[A9G]_T4.1 (ssRNA)
# RNA: B1 RNA with C33U
# B5: Ic_S2_P4E.1_K4.1_C4.1_H4.1_A4.1_[T5C]_[A6C]_[T7C]_F4.1_[A9G]_T4.1 (ssRNA)
# RNA: B1 RNA with G32C, U34C
# B6: Ic_S2_P4E.1_K4.1_C4.1_H4.1_A4.1_[T5C]_[A6G]_[T7C]_F4.1_[T8C]_[A9G]_T4.1 (ssRNA)
# RNA: B1 RNA with G32C, C33G, U34C, U35C
# B7: Ic_S2_P4E.1_K4.1_C4.1_H4.1_A4.1_[T5G]_[A6T]_[T7A]_F4.1_[T8A]_[A9T]_T4.1 (ssRNA)
# RNA: B1 RNA with C33U, U34A, U35A, G36U
# B8: Ic_S2_P4E.1_K4.1_C4.1_H4.1_A4.1_[T5G]_[A6T]_[T7G]_F4.1_[T8C]_[A9G]_T4.1 (ssRNA)
# RNA: B1 RNA with C33U, U34G, U35C
# B9: Ic_S2_P4E.1_K4.1_C4.1_H4.1_A4.1_[T5C]_[A6G]_[T7C]_F4.1_[A9G]_T4.1 (ssRNA)
# RNA: B1 RNA with G32C, C33G, U34C
# B10: Ic_S2_P4E.1_K4.1_C4.1_H4.1_A4.1_[T5G]_[A6T]_[T7C]_F4.1_[T8G]_[A9C]_T4.1 (ssRNA)
# RNA: B1 RNA with C33U, U34C, U35G, G36C
# B11: Ic_S2_P4E.1_K4.1_C4.1_H4.1_A4.1_[T5C]_[A6G]_F4.1_[A9T]_T4.1 (ssRNA)
# RNA: B1 RNA with G32C, C33G, G36U
# B12: Ic_S2_P4E.1_K4.1_C4.1_H4.1_A4.1_[T5G]_[A6T]_[T7C]_F4.1_[T8C]_[A9C]_T4.1 (ssRNA)
# RNA: B1 RNA with C33U, U34C, U35C, G36C
# B13: Ic_S2_P4E.1_K4.1_C4.1_H4.1_A4.1_[T5C]_[A6C]_[T7C]_F4.1_[T8G]_[A9C]_T4.1 (ssRNA)
# RNA: B1 RNA with G32C, U34C, U35G, G36C
# B14: Ic_S2_P4E.1_K4.1_C4.1_H4.1_A4.1_[T5C]_[A6G]_F4.1_[A9G]_T4.1 (ssRNA)
# RNA: B1 RNA with G32C, C33G
# B15: Ic_S2_P4E.1_K4.1_C4.1_H4.1_A4.1_[T5C]_[A6C]_[T7G]_F4.1_[T8C]_[A9T]_T4.1 (ssRNA)
# RNA: B1 RNA with G32C, U34G, U35C, G36U
# B16: Ic_S2_P4E.1_K4.1_C4.1_H4.1_A4.1_[T5G]_[A6T]_[T7C]_F4.1_[A9C]_T4.1 (ssRNA)
# RNA: B1 RNA with C33U, U34C, G36C
# B17: Ic_S2_P4E.1_K4.1_C4.1_H4.1_A4.1_[T5C]_[A6C]_[T7G]_F4.1_[T8C]_[A9C]_T4.1 (ssRNA)
# RNA: B1 RNA with G32C, U34G, U35C, G36C
# B18: Ic_S2_P4E.1_K4.1_C4.1_H4.1_A4.1_[T5C]_[A6C]_[T7G]_F4.1_[T8A]_[A9C]_T4.1 (ssRNA)
# RNA: B1 RNA with G32C, U34G, U35A, G36C
# B19: Ic_S2_P4E.1_K4.1_C4.1_H4.1_A4.1_[T5G]_[A6T]_[T7A]_F4.1_[A9T]_T4.1 (ssRNA)
# RNA: B1 RNA with C33U, U34A, G36U
# B20: Ic_S2_P4E.1_K4.1_C4.1_H4.1_A4.1_[T5C]_[A6G]_F4.1_[T8A]_T4.1 (ssRNA)
# RNA: B1 RNA with G32C, C33G, U35A, G36A
# B21: Ic_S2_P4E.1_K4.1_C4.1_H4.1_A4.1_[T5G]_[A6T]_[T7C]_F4.1_[T8G]_[A9T]_T4.1 (ssRNA)
# RNA: B1 RNA with C33U, U34C, U35G, G36U
# B22: Ic_S2_P4E.1_K4.1_C4.1_H4.1_A4.1_[T5G]_[A6T]_[T7C]_F4.1_[A9T]_T4.1 (ssRNA)
# RNA: B1 RNA with C33U, U34C, G36U
# B23: Ic_S2_P4E.1_K4.1_C4.1_H4.1_A4.1_[T5C]_[A6G]_[T7C]_F4.1_[A9C]_T4.1 (ssRNA)
# RNA: B1 RNA with G32C, C33G, U34C, G36C
# B24: Ic_S2_P4E.1_K4.1_C4.1_H4.1_A4.1_[T5C]_[A6G]_F4.1_[T8C]_T4.1 (ssRNA)
# RNA: B1 RNA with G32C, C33G, U35C, G36A
# B25: Ic_S2_P4E.1_K4.1_C4.1_H4.1_A4.1_[T5G]_[A6T]_F4.1_[T8A]_[A9T]_T4.1 (ssRNA)
# RNA: B1 RNA with C33U, U35A, G36U
# B26: Ic_S2_P4E.1_K4.1_C4.1_H4.1_A4.1_[T5G]_[A6T]_[T7A]_F4.1_[T8A]_T4.1 (ssRNA)
# RNA: B1 RNA with C33U, U34A, U35A, G36A
# B27: Ic_S2_P4E.1_K4.1_C4.1_H4.1_A4.1_[T5C]_[A6C]_[T7C]_F4.1_[T8C]_[A9G]_T4.1 (ssRNA)
# RNA: B1 RNA with G32C, U34C, U35C
# B28: Ic_S2_P4E.1_K4.1_C4.1_H4.1_A4.1_[T5G]_[A6C]_F4.1_[A9C]_T4.1 (ssRNA)
# RNA: B1 RNA with G36C
# B29: Ic_S2_P4E.1_K4.1_C4.1_H4.1_A4.1_[T5C]_[A6G]_[T7C]_F4.1_[T8C]_T4.1 (ssRNA)
# RNA: B1 RNA with G32C, C33G, U34C, U35C, G36A
# B30: Ic_S2_P4E.1_K4.1_C4.1_H4.1_A4.1_[T5C]_[A6G]_[T7A]_F4.1_[T8C]_T4.1 (ssRNA)
# RNA: B1 RNA with G32C, C33G, U34A, U35C, G36A
# B31: Ic_S2_P4E.1_K4.1_C4.1_H4.1_A4.1_[T5G]_[A6T]_[T7C]_F4.1_T4.1 (ssRNA)
# RNA: B1 RNA with C33U, U34C, G36A
# B32: Ic_S2_P4E.1_K4.1_C4.1_H4.1_A4.1_[T5G]_[A6T]_[T7A]_F4.1_[T8G]_[A9T]_T4.1 (ssRNA)
# RNA: B1 RNA with C33U, U34A, U35G, G36U
# B33: Ic_S2_P4E.1_K4.1_C4.1_H4.1_A4.1_[T5G]_[A6T]_[T7C]_F4.1_[T8C]_[A9T]_T4.1 (ssRNA)
# RNA: B1 RNA with C33U, U34C, U35C, G36U
# B34: Ic_S2_P4E.1_K4.1_C4.1_H4.1_A4.1_[T5C]_[A6C]_[T7C]_F4.1_[T8C]_[A9T]_T4.1 (ssRNA)
# RNA: B1 RNA with G32C, U34C, U35C, G36U
# B35: Ic_S2_P4E.1_K4.1_C4.1_H4.1_A4.1_[T5C]_[A6G]_[T7C]_F4.1_[T8A]_[A9T]_T4.1 (ssRNA)
# RNA: B1 RNA with G32C, C33G, U34C, U35A, G36U
# B36: Ic_S2_P4E.1_K4.1_C4.1_H4.1_A4.1_[T5C]_[A6C]_[T7C]_F4.1_[T8A]_[A9T]_T4.1 (ssRNA)
# RNA: B1 RNA with G32C, U34C, U35A, G36U
# B37: Ic_S2_P4E.1_K4.1_C4.1_H4.1_A4.1_[T5G]_[A6T]_[T7G]_F4.1_[T8C]_[A9T]_T4.1 (ssRNA)
# RNA: B1 RNA with C33U, U34G, U35C, G36U
# B38: Ic_S2_P4E.1_K4.1_C4.1_H4.1_A4.1_[T5C]_[A6G]_[T7G]_F4.1_[A9T]_T4.1 (ssRNA)
# RNA: B1 RNA with G32C, C33G, U34G, G36U
# B39: Ic_S2_P4E.1_K4.1_C4.1_H4.1_A4.1_[T5G]_[A6T]_F4.1_[T8C]_[A9C]_T4.1 (ssRNA)
# RNA: B1 RNA with C33U, U35C, G36C
# B40: Ic_S2_P4E.1_K4.1_C4.1_H4.1_A4.1_[T5C]_[A6G]_[T7C]_F4.1_[T8G]_[A9C]_T4.1 (ssRNA)
# RNA: B1 RNA with G32C, C33G, U34C, U35G, G36C
# B41: Ic_S2_P4E.1_K4.1_C4.1_H4.1_A4.1_[T5G]_[A6T]_[T7C]_F4.1_[T8C]_T4.1 (ssRNA)
# RNA: B1 RNA with C33U, U34C, U35C, G36A
# B42: Ic_S2_P4E.1_K4.1_C4.1_H4.1_A4.1_[T5C]_[A6G]_[T7G]_F4.1_[T8C]_[A9C]_T4.1 (ssRNA)
# RNA: B1 RNA with G32C, C33G, U34G, U35C, G36C
# B43: Ic_S2_P4E.1_K4.1_C4.1_H4.1_A4.1_[T5G]_[A6T]_F4.1_[T8G]_[A9C]_T4.1 (ssRNA)
# RNA: B1 RNA with C33U, U35G, G36C
# B44: Ic_S2_P4E.1_K4.1_C4.1_H4.1_A4.1_[T5C]_[A6G]_[T7C]_F4.1_[T8C]_[A9T]_T4.1 (ssRNA)
# RNA: B1 RNA with G32C, C33G, U34C, U35C, G36U
# B45: Ic_S2_P4E.1_K4.1_C4.1_H4.1_A4.1_[T5G]_[A6T]_[T7A]_F4.1_T4.1 (ssRNA)
# RNA: B1 RNA with C33U, U34A, G36A
# B46: Ic_S2_P4E.1_K4.1_C4.1_H4.1_A4.1_[T5C]_[A6C]_[T7C]_F4.1_[T8G]_[A9G]_T4.1 (ssRNA)
# RNA: B1 RNA with G32C, U34C, U35G
# B47: Ic_S2_P4E.1_K4.1_C4.1_H4.1_A4.1_[T5G]_[A6C]_F4.1_[A9T]_T4.1 (ssRNA)
# RNA: B1 RNA with G36U
# B48: Ic_S2_P4E.1_K4.1_C4.1_H4.1_A4.1_[T5G]_[A6T]_[T7C]_F4.1_[T8C]_[A9G]_T4.1 (ssRNA)
# RNA: B1 RNA with C33U, U34C, U35C
# Biological target: T1, PUF4 RNA-binding domain
# Test: Mg; RNA-MaP; 20 mM Na-HEPES pH 7.4, 30 mM KOAc, 0.75 mM MgCl2, 0.1% Tween-20, 5% glycerol, 0.1 mg/mL BSA, 2 mM DTT; 25 C; 0.0125-409.6 nM protein
# Conditions: tags: N-His6-TEV cleaved; C-SNAP kept, Cy3B-labelled; label: tethered on chip by stalled RNA polymerase
row,Binder,Kd
1,UCUCUUUGUGUCUAUCUCUU (ssRNA) [Ib_S1_P3E.1_K3.1_C3.1_H3.1_[A4G]_A3.1_[A6C]_F3.1_T3.1],983 nM
2,UCUCUUUGUCUUUAUCUCUU (ssRNA) [Ib_S1_P3E.1_K3.1_C3.1_H3.1_[A4C]_A3.1_[A6T]_F3.1_T3.1],> 2300 nM
3,B1,208 nM
4,B2,550 nM
5,B3,332 nM
6,B4,95.3 nM
7,B5,20.2 nM
8,B6,501 nM
9,B7,342 nM
10,B8,651 nM
11,B9,31.1 nM
12,B10,598 nM
13,B11,19.6 nM
14,B12,473 nM
15,B13,1580 nM
16,B14,28.9 nM
17,B15,154 nM
18,B16,149 nM
19,B17,736 nM
20,B18,936 nM
21,B19,26.4 nM
22,B20,125 nM
23,B21,288 nM
24,B22,41.9 nM
25,B23,28.3 nM
26,B24,117 nM
27,B25,148 nM

row,Binder,Kd
1,B26,407 nM
2,B27,595 nM
3,B28,52.2 nM
4,B29,22.8 nM
5,B30,407 nM
6,B31,4.56 nM
7,B32,984 nM
8,B33,121 nM
9,B34,96.8 nM
10,B35,235 nM
11,B36,81.4 nM
12,B37,478 nM
13,B38,109 nM
14,B39,257 nM
15,B40,573 nM
16,B41,527 nM
17,B42,830 nM
18,B43,588 nM
19,B44,81.6 nM
20,B45,2.26 nM
21,B46,844 nM
22,B47,30.4 nM
23,B48,732 nM
24,UCUCUUUGUUCAUAUCUCUU (ssRNA) [Ib_S1_P3E.1_K3.1_C3.1_H3.1_[A4T]_A3.1_[T5C]_F3.1_T3.1],682 nM
25,UCUCUUUGUGUGUAUCUCUU (ssRNA) [Ib_S1_P3E.1_K3.1_C3.1_H3.1_[A4G]_A3.1_[A6G]_F3.1_T3.1],178 nM
26,UCUCUUUGUGUUUAUCUCUU (ssRNA) [Ib_S1_P3E.1_K3.1_C3.1_H3.1_[A4G]_A3.1_[A6T]_F3.1_T3.1],549 nM
